Entries after “also recorded” stand apart in the source; their conditions may differ. Like-named read-outs stand apart in the source and are kept apart here.
Columns and labels:
integrin αvβ3 = target: T1, integrin αvβ3 (Homo sapiens, UniProt P05106+P06756); assay: ELISA-type binding of soluble recombinant integrin αvβ3 to immobilized NRG1 fragments; settings: soluble αvβ3, 1 mM Mn2+, room temperature
T1 construct: Soluble recombinant integrin αvβ3 (5 μg/ml) was added to the wells; made in house
Procedure: FIG. 1. […] The isolated EGF-like domain of Wt NRG1 was immobilized to wells of 96-well titer plates. The concentrations of the coating solution are shown. Soluble recombinant integrin αvβ3 (5 μg/ml) was added to the wells in the presence of 1 mM Mn^2+ and incubated for 2 h at room temperature. After washing the wells bound αvβ3 was determined by using anti-β3 antibody and HRP-conjugated anti-mouse IgG. The data is shown as means+/−SEM of triplicate experiments. FIG. 7. […] Wt GST-NRG1 (175-222) and the 2KE mutant of GST-NRG1 (175-222) were immobilized to wells of 96-well titer plates. The concentrations of the coating solution are shown. Soluble recombinant integrin αvβ3 (5 μg/ml) was added to the wells in the presence of 1 mM Mn^2+ and incubated for 2 h at room temperature. After washing, the wells bound αvβ3 was determined by using anti-β3 antibody and HRP-conjugated anti-mouse IgG. The data are shown as means+/−SD of triplicate experiments. […] Direct αvβ3-NRG (175-222) interaction: It has been well established that the EGF-like domain of the NRGs is sufficient to specifically activate ErbB receptors and to induce cellular responses in culture. To generate GST-NRG1 EGF-like domain fusion protein, the cDNA fragment of the EGF-like domain of NRG1 was amplified by PCR and subcloned into PGEX-2T vector to generate GST-NRG1 EGF-like domain fusion protein (designated GST-NRG1 (175-222)) in E. coli BL21. The fusion protein was purified in glutathione-affinity chromatography. The affinity resin was extensively washed with 1% Triton X-114 to remove endotoxin before eluting the protein. It was tested, in the present invention, whether soluble recombinant integrin αvβ3 binds to GST-NRG1 (175-222) that is immobilized to plastic wells (ELISA-type assay). […] Cell adhesion and soluble integrin binding assays were performed as described previously (Mori, et al., 2008). NRG1α (175-241) was immobilized to wells of 96-well microtiter plate overnight at 4° C. in 0.1 M carbonate buffer, pH 2 9.4. Remaining protein binding sites were blocked by incubating with 200 μl of 0.1% BSA in PBS for 60 min at room temperature. Wells were then incubated with soluble integrin αvβ3 in 50 μl in Hepes-Tyrode's buffer supplemented with 1 mM Mn2+ at room temperature for 60 min. After rinsing the wells with the same buffer, bound integrins were determined by horseradish peroxidase (HRP)-conjugated anti-His tag mouse IgG and substrate 3,3′,5,5′-tetramethylbenzidine of HRP.

[1] = target: T2, K562 cells that express human αvβ3 (αvβ3-K562) (Homo sapiens, UniProt P05106+P06756); assay: Cell adhesion assay, αvβ3-K562 cells; type: cell-based
T2 construct: expressed in transfected cells; host or cells: K562
Procedure: FIG. 5. […] Adhesion assays was performed using αvβ3-K562 (left) or mock transfected cells (right) as described herein. The data is shown as means+/−SEM of triplicate experiments.
CHO or K562 cells expressing different recombinant integrins were previously known and available (Zhang et al. 1998; Tarui et al. 2006). Labeling of proteins with FITC or […] was performed according to manufacturers' instructions. Flow cytometry was performed as described above. Also, adhesion assays as described above were used to confirm the findings using flow cytometry.
(§1) Cell adhesion and soluble integrin binding assays were performed as described previously (Mori, et al., 2008). NRG1α (175-241) was immobilized to wells of 96-well microtiter plate overnight at 4° C. in 0.1 M carbonate buffer, pH 2 9.4. Remaining protein binding sites were blocked by incubating with 200 μl of 0.1% BSA in PBS for 60 min at room temperature. Wells were then incubated with soluble integrin αvβ3 in 50 μl in Hepes-Tyrode's buffer supplemented with 1 mM Mn2+ at room temperature for 60 min. After rinsing the wells with the same buffer, bound integrins were determined by horseradish peroxidase (HRP)-conjugated anti-His tag mouse IgG and substrate 3,3′,5,5′-tetramethylbenzidine of HRP.

[2] = target: T3, CHO cells expressing β1-3-1 (β1-3-1-CHO cells) (Homo sapiens, UniProt P05556, DEL209-212/INS207YDMKT); assay: Cell adhesion assay, β1-3-1-CHO cells; type: cell-based
T3 construct: expressed in transfected cells; host or cells: CHO
Procedure: FIG. 3. Adhesion of CHO cells that express human β1 (β1-CHO) or β1-3-1 (β1-3-1-CHO) to wt NRG1 (175-222). The β1-3-1 mutation changes the specificity of β1 integrins to that of β3 integrins. Cell adhesion was performed as described herein. β1-3-1-CHO cells adhered to wt NRG1 (175-222) and this binding was blocked by anti-human β1 antibody AIIB2, but not by purified mouse IgG (mIgG). BSA: BSA as a control was coated instead of NRG1 (175-222).
FIG. 6. […] Adhesion assays was performed using β1-3-1-CHO cells as described herein. Data are shown as means+/−SEM of triplicate experiments.
The β1-3-1 mutation: To determine if NRG1 (175-222) binds to αvβ3 like other known αvβ3 ligands (e.g., vitronectin and fibrinogen), a mutant of β1 having a ligand specificity of β3 (Takagi et al. 1997) was used. […] It was shown that when a disulfide-linked five-residue sequence of β1 I-like domain (residues 177-183) of αvβ1 is switched with a corresponding sequence in β3 integrin (designated the β1-3-1 mutant), ligand-binding specificity of the mutated integrin αvβ1-3-1 is altered to that of αvβ3 (Takagi et al. 1997). […] The adhesion of β1-3-1-CHO cells to NRG1 (175-222) was blocked anti-β1 antibody AIIB2 (FIG. 3). […] These findings indicate that NRG1 (175-222) binds to the ligand-binding site of αvβ3, and that the specificity loop plays a role in NRG1 binding to αvβ3.
as §1

T3 sequence (P05556 with tags, fused parts or gaps INS207YDMKT/DEL209-212): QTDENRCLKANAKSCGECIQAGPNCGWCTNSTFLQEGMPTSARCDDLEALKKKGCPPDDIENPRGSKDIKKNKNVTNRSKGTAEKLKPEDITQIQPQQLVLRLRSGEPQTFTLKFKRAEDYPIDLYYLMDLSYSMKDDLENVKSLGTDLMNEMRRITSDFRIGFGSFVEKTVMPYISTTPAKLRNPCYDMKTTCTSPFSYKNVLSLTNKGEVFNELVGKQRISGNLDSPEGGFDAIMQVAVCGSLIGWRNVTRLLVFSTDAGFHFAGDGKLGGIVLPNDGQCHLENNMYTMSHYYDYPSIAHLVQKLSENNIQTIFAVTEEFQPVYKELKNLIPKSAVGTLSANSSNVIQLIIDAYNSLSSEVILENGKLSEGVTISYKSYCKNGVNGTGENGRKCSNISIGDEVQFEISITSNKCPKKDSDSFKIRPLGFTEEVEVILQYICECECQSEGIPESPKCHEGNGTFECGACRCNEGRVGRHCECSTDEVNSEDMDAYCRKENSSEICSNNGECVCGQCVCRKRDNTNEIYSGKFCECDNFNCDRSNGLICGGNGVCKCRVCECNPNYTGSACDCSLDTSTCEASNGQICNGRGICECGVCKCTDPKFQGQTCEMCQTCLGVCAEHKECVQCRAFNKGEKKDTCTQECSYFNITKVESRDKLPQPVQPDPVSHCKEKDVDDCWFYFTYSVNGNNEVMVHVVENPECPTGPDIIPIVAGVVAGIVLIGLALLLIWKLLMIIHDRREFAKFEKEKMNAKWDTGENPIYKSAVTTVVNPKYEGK
T1 sequence (P06756 31-992 limits assumed): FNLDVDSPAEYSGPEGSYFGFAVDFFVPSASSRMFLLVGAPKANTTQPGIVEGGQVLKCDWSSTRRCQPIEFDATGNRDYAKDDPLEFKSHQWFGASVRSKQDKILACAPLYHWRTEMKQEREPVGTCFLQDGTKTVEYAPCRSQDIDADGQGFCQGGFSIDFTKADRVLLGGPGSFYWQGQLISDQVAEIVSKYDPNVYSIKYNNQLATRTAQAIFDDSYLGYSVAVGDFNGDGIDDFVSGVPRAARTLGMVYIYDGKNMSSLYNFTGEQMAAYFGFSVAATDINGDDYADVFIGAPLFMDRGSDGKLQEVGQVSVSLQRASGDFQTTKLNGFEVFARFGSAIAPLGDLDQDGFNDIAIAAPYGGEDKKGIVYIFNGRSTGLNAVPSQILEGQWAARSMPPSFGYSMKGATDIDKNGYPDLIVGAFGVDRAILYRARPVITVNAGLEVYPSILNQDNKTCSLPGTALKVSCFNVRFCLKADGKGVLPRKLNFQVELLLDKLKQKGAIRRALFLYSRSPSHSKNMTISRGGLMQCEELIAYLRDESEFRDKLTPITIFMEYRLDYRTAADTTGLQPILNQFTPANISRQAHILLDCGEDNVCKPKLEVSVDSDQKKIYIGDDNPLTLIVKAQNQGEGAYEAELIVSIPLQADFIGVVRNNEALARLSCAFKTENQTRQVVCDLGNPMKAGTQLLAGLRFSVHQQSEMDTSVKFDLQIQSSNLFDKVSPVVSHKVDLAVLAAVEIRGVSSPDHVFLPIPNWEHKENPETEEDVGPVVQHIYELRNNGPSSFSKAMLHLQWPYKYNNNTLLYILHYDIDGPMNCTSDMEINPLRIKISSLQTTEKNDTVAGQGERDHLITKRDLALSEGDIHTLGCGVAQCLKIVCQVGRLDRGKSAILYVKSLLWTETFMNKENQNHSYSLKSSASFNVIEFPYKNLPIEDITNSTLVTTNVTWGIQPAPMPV
T1 sequence (P05106 27-718 limits assumed): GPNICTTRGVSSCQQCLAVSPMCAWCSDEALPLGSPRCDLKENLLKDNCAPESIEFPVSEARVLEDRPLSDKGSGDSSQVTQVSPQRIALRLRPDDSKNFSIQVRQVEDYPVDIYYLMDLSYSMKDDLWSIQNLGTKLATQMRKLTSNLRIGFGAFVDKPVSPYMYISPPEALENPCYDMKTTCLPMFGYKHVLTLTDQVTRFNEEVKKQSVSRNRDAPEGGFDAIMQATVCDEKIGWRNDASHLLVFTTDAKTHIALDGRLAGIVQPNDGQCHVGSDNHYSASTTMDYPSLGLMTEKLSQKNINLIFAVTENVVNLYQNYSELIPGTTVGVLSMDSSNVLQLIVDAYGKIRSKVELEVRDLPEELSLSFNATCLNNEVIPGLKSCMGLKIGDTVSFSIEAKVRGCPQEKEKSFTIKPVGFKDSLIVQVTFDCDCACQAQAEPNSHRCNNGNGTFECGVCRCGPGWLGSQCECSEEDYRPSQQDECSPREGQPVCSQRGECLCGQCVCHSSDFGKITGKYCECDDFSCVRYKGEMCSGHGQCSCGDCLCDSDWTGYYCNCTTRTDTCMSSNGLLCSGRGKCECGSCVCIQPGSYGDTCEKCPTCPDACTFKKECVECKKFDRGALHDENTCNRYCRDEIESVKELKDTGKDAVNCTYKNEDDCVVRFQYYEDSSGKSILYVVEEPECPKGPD
T2 sequence (P06756 31-1048): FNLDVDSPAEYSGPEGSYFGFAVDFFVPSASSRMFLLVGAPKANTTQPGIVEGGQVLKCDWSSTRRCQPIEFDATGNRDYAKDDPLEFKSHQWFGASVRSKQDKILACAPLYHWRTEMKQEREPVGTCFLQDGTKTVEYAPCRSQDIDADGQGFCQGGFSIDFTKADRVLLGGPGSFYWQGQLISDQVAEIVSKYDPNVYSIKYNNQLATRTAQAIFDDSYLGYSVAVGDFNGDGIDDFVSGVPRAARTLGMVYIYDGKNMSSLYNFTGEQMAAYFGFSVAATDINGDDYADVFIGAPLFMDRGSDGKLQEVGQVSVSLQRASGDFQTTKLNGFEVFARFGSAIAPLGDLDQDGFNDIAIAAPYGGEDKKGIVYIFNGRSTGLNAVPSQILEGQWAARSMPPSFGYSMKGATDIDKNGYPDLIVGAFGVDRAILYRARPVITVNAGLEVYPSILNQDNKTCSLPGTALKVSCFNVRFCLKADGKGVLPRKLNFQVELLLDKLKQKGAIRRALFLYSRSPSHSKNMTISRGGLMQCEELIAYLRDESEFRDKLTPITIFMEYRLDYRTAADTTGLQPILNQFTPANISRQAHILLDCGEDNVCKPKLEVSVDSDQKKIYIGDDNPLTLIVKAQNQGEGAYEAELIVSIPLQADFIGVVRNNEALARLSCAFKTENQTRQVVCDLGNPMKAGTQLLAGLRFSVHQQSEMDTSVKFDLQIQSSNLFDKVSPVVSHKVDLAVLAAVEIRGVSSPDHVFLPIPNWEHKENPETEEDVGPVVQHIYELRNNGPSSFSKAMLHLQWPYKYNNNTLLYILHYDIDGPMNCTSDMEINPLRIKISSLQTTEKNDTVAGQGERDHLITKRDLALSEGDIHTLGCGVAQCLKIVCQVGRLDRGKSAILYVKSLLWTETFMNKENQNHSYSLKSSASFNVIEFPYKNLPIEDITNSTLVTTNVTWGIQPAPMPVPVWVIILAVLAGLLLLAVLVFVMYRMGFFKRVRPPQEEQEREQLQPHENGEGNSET
T2 sequence (P05106 27-788): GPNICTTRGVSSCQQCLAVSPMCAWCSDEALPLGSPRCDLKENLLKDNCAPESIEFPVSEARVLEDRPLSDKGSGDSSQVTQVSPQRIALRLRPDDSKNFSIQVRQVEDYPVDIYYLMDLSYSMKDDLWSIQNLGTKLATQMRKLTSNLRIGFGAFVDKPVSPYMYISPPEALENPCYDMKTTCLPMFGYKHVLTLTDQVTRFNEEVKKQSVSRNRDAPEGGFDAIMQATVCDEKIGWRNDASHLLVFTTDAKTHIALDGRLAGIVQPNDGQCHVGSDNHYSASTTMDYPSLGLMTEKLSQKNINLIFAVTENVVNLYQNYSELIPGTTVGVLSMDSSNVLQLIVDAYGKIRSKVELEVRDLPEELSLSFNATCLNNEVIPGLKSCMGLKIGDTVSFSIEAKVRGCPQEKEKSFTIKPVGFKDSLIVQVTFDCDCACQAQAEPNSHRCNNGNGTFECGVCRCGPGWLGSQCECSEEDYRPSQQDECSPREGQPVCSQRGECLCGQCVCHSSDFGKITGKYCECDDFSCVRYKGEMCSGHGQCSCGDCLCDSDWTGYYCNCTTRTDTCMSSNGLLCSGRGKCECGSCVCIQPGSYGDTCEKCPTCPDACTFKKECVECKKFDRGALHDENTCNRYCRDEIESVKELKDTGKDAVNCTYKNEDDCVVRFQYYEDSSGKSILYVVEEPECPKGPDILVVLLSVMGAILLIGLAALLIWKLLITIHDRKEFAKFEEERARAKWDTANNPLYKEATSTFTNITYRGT

Row | Molecule | Binding of soluble recombinant integrin αvβ3 to the immobilized protein (integrin αvβ3) | Adhesion of αvβ3-K562 cells to the immobilized protein [1] | Adhesion of β1-3-1-CHO cells to the immobilized protein [2] | Binding of soluble recombinant integrin αvβ3 to the immobilized protein (integrin αvβ3; listed as NRG (175-222)) | Adhesion of αvβ3-K562 cells to the immobilized protein ([1]; listed as NRG1 (175-222)) | Adhesion of αvβ3-K562 cells to the immobilized protein ([1]; listed as NRG1α (175-241)) | Adhesion of αvβ3-K562 cells to the immobilized protein ([1]; listed as wt NRG1α (175-241)) | Adhesion of β1-3-1-CHO cells to the immobilized protein ([2]; listed as NRG1α (175-241)) | Adhesion of β1-3-1-CHO cells to the immobilized protein ([2]; listed as wt NRG1α (175-241))
1 | 3KE (175-222): NRG1 (175-222) with Lys181/Lys185/Lys187 mutated to Glu; GTSHLVECAEEEETFCVNGGECFMVKDLSNPSRYLCKCQPGFTGARCT (SEQ ID NO:11) (integrin-binding site within human neuregulin, 3KE mutant, short version) | bound to the 3KE (175-222) mutant (isolated EGF-like domain) in a dose-dependent manner; also recorded: much lower affinity to αvβ3 | did not bind; also recorded: defective in binding to αvβ3-K562 cells | defective in binding to β1-3-1 integrins | – | – | – | – | – | –
2 | wt NRG1 (175-222): wild type human neuregulin 1 fragment, EGF-like domain, residues 175-222 of SEQ ID NO:4 (SEQ ID NO:3) (GTSHLVKCAEKEKTFCVNGGECFMVKDLSNPSRYLCKCQPGFTGARCT; integrin-binding site within human neuregulin 1 EGF-like region and portion of alpha domain, residues 175-222 of human neuregulin 1 alpha) [reference compound] | – | bound to wt NRG1 (175-222) | bound to NRG1 (175-222) | bound to recombinant soluble αvβ3 | adhered in a dose-dependent manner | – | – | – | –
3 | WT NRG1α (175-241): wild type human neuregulin 1 fragment, residues 175-241 of SEQ ID NO:4 (SEQ ID NO:5), entire EGF-like motif and α domain (protein, integrin-binding site within human neuregulin, residues 175-241of human neuregulin 1alpha, long version) GTSHLVKCAEKEKTFCVNGGECFMVKDLSNPSRYLCKCQPGFTGARCTENVPMKVQNQEKAEELYQK | bound to GST-NRG1α (175-241) (isolated EGF-like domain) in a dose-dependent manner | – | – | – | – | adhered in a dose-dependent manner | bound to wt NRG1α (175-241) | bound to NRG1α (175-241) | bound to wt NRG1α (175-241)
4 | 3KE (175-241): NRG1α (175-241) with Lys181/Lys185/Lys187 mutated to Glu, SEQ ID NO:6 (3KE, long version) (protein, integrin-binding site within human neuregulin, residues 175-241of human neuregulin 1alpha, long version, 3KE mutant) GTSHLVECAEEEETFCVNGGECFMVKDLSNPSRYLCKCQPGFTGARCTENVPMKVQNQEKAEELYQK | – | little or no adhesion | little or no adhesion | – | – | – | – | – | –

Source: patent publication US20110212108A1, “NEUREGULIN/ERBB SIGNALING AND INTEGRIN” (THE REGENTS OF THE UNIVERSITY OF CALIFORNIA, priority 2008, published 2011)
